# Laboratory results reported in the Human Domainome abundance scans (Beltran et al. 2025).
# ± gives the uncertainty stated by the source.
# B1: POU domain, class 2, transcription factor 1, residues 285 to 354; numbered along this chain, P14859 (parent)
# chain: LEELEQFAKTFKQRRIKLGFTQGDVGLAMGKLYGNDFSQTTISRFEALNLSFKNMCKLKPLLEKWLNDAE
# Variants of: B1
# Test: abundance fitness (aPCA) (normalised: wild type 0, dead -1); higher = more abundant; growth selection in yeast, the domain comes from the species named
# Details: Homo sapiens
row,Variant,abundance fitness
1,LEELEQFAKTFKQRRIKLGFTQGDVGLAMGKLYGNDFSQTTRSRFEALNLSFKNMCKLKPLLEKWLNDAE [I42R],-0.869 ± 0.051
2,LEILEQFAKTFKQRRIKLGFTQGDVGLAMGKLYGNDFSQTTISRFEALNLSFKNMCKLKPLLEKWLNDAE [E3I],-0.117 ± 0.063
3,LEKLEQFAKTFKQRRIKLGFTQGDVGLAMGKLYGNDFSQTTISRFEALNLSFKNMCKLKPLLEKWLNDAE [E3K],-0.137 ± 0.035
4,LEELEQFAKTFKQRRIKLGFTQGDPGLAMGKLYGNDFSQTTISRFEALNLSFKNMCKLKPLLEKWLNDAE [V25P],-0.687 ± 0.09
5,LEELEQFAKTFKQRRIKLGFTQGDVGLAMGKLYGNDFSQTTISRFEALNLSFKNMCKLKPGLEKWLNDAE [L61G],-0.09 ± 0.036
6,LEELEQFAKTFKQRRIKLGFTQGDVGLAMGKLYGNDFSQTTISRFLALNLSFKNMCKLKPLLEKWLNDAE [E46L],-1.01 ± 0.048
7,LEELEQFAKTFKQRRIKLGFTQGDVGLAMGKLYGNDFNQTTISRFEALNLSFKNMCKLKPLLEKWLNDAE [S38N],-0.032 ± 0.046
8,LEELEQFAKTFKQRRIKLGFTQGDVGLAMGKLYGNDFTQTTISRFEALNLSFKNMCKLKPLLEKWLNDAE [S38T],0.012 ± 0.02
9,LEELEQFAKTFKQRRIKLGFTQGDVGLAMGKLYGNDFRQTTISRFEALNLSFKNMCKLKPLLEKWLNDAE [S38R],-0.061 ± 0.02
10,LEELEQFAKTFKQRRIKLGFTQGDVGLAMGKLYGNDFSQTTISRFEALNLSFKNMCKLKPLLKKWLNDAE [E63K],-0.126 ± 0.09
11,LEELEYFAKTFKQRRIKLGFTQGDVGLAMGKLYGNDFSQTTISRFEALNLSFKNMCKLKPLLEKWLNDAE [Q6Y],-0.03 ± 0.05
12,LEELEQFAKTFKQRRIKLGFTQGDVGLAMGKLYGNDFSQTTISRFEALNLHFKNMCKLKPLLEKWLNDAE [S51H],-0.076 ± 0.045
13,LEELEQFAKTFKQRRIKLGFTQGDVGLAMGKLYGNDFSQTLISRFEALNLSFKNMCKLKPLLEKWLNDAE [T41L],-0.023 ± 0.021
14,LEELEQFAKTFKQRRIKLGFTQGDVGLAEGKLYGNDFSQTTISRFEALNLSFKNMCKLKPLLEKWLNDAE [M29E],-0.808 ± 0.085
15,LEELEQFAKTFKQRRIKLGFTQGDVGLAKGKLYGNDFSQTTISRFEALNLSFKNMCKLKPLLEKWLNDAE [M29K],-0.748 ± 0.081
16,LEELEQFAKTFKQRRIKLGFTQGDVGLAAGKLYGNDFSQTTISRFEALNLSFKNMCKLKPLLEKWLNDAE [M29A],-0.145 ± 0.022
17,LEELEQFAKTFKQRRIKLGFTQGDVDLAMGKLYGNDFSQTTISRFEALNLSFKNMCKLKPLLEKWLNDAE [G26D],-0.052 ± 0.043
18,LWELEQFAKTFKQRRIKLGFTQGDVGLAMGKLYGNDFSQTTISRFEALNLSFKNMCKLKPLLEKWLNDAE [E2W],-0.043 ± 0.029
19,LEELEQFAKTFKQRRIKLGFTQGDVGLAMGKLYGNDFSQTTISRFEALNLSFKNQCKLKPLLEKWLNDAE [M55Q],-0.034 ± 0.028
20,LEELEQFAKTFKQRRIKLGFTQGDVGLAMGKLYGNDFSQTTISRFELLNLSFKNMCKLKPLLEKWLNDAE [A47L],0.054 ± 0.28

row,Variant,abundance fitness
1,LEELEQFAKTFKQRRIKLGFTQGDVGLAMGALYGNDFSQTTISRFEALNLSFKNMCKLKPLLEKWLNDAE [K31A],-0.027 ± 0.023
2,LEELEQFAKTFKQRRIKLSFTQGDVGLAMGKLYGNDFSQTTISRFEALNLSFKNMCKLKPLLEKWLNDAE [G19S],-0.288 ± 0.11
3,LEELEQFAKTFKQRRIKLAFTQGDVGLAMGKLYGNDFSQTTISRFEALNLSFKNMCKLKPLLEKWLNDAE [G19A],-0.391 ± 0.16
4,LEELEQFAKTFKQRRPKLGFTQGDVGLAMGKLYGNDFSQTTISRFEALNLSFKNMCKLKPLLEKWLNDAE [I16P],-1.07 ± 0.17
5,LEELEQFAKTFKQRRWKLGFTQGDVGLAMGKLYGNDFSQTTISRFEALNLSFKNMCKLKPLLEKWLNDAE [I16W],-0.269 ± 0.076
6,LEELEQFAKTFKQRRVKLGFTQGDVGLAMGKLYGNDFSQTTISRFEALNLSFKNMCKLKPLLEKWLNDAE [I16V],-0.017 ± 0.047
7,LEELEQFAKTFKQRRIKLGFTQGDVGLAMGKLYGNGFSQTTISRFEALNLSFKNMCKLKPLLEKWLNDAE [D36G],-0.092 ± 0.022
8,LEELEQFAKTFKQRRIWLGFTQGDVGLAMGKLYGNDFSQTTISRFEALNLSFKNMCKLKPLLEKWLNDAE [K17W],-0.037 ± 0.039
9,LEELEQFAKTFKQRRIILGFTQGDVGLAMGKLYGNDFSQTTISRFEALNLSFKNMCKLKPLLEKWLNDAE [K17I],-0.1 ± 0.059
10,LEELEQFAKTFKQRRIGLGFTQGDVGLAMGKLYGNDFSQTTISRFEALNLSFKNMCKLKPLLEKWLNDAE [K17G],-0.027 ± 0.065
11,LEELEQFAKTFKQRRIKLGFTQGDVGLAMGKLPGNDFSQTTISRFEALNLSFKNMCKLKPLLEKWLNDAE [Y33P],-0.104 ± 0.021
12,LEELEQFAKTFKQRRIKLGFTQGDVGLAMGKLGGNDFSQTTISRFEALNLSFKNMCKLKPLLEKWLNDAE [Y33G],-0.097 ± 0.055
13,LEELEQFAKTFKQRRIKLGFTQGDVGLAMGKLYGNDFSQTTISRFEALNLSFKNMCKLKPLLEKWLNSAE [D68S],0.026 ± 0.029
14,LEELEQFAKTFKQRRIKLGFTLGDVGLAMGKLYGNDFSQTTISRFEALNLSFKNMCKLKPLLEKWLNDAE [Q22L],-0.001 ± 0.024
15,LEELEQFAKTFKQRRIKLGFTKGDVGLAMGKLYGNDFSQTTISRFEALNLSFKNMCKLKPLLEKWLNDAE [Q22K],0.048 ± 0.086
16,LEELEQFAKTFKQRRIKLGFTQGDVGLAMGKLYGNDFSQTTISRFEALNLSFSNMCKLKPLLEKWLNDAE [K53S],-0.006 ± 0.024
17,LEELEQFAKTFKQRRIKLGFTQGDVGLAMGKLYGNDFSQTTISRFEALNLSWKNMCKLKPLLEKWLNDAE [F52W],-0.002 ± 0.025
18,LEELEQFAKTFKQRRIKLGFTQGDVGLAMGKLYGNDFSPTTISRFEALNLSFKNMCKLKPLLEKWLNDAE [Q39P],-0.011 ± 0.021
19,LEELEQFAKTFKQRRIKLGFTQGDVGLAMGKLYGNDFSDTTISRFEALNLSFKNMCKLKPLLEKWLNDAE [Q39D],0.008 ± 0.036
